B2: Cas1-(His)6-MBP-Cas2 complex (complex, Streptococcus pyogenes)
chain 1: MAGWRTVVVNTHSKLSYKNNHLIFKDAYKTELIHLSEIDILLLETTDIVLSTMLVKRLVDENVLVIFCDDKRLPTAMLMPFYGRHDSSLQLGKQMSWSETVKSQVWTTIIAQKILNQSCYLGACSYFEKSQSIMDLYHGLENFDPSNREGHAARIYFNTLFGNDFSRDLEHPINAGLDYGYTLLLSMFAREVVVSGCMTQFGLKHANQFNQFNFASDIMEPFRPLVDKIVYENRNQPFPKIKRELFTLFSDTFSYNGKEMYLTNIISDYTKKVVKALNNEGKGVPEFRI
chain 2: MSYRYMRMILMFDMPTDTAEERKAYRKFRKFLLSEGFIMHQFSIYSKLLLNNTANNAMIGRLREHNPNKGNITLLTVTEKQFARMIYLHGERNNCIANSDERLVFLGEAFDES
B3: Streptococcus pyogenes type II-A Csn2 (natural protein, UniProt Q99ZV9 1-220, looked up)
chain: MNLNFSLLDEPIPLRGGTILVLEDVCVFSKIVQYCYQYEEDSELKFFDHKMKTIKESEIMLVTDILGFDVNSSTILKLIHADLESQFNEKPEVKSMIDKLVATITELIVFECLENELDLEYDEITILELIKSLGVKVETQSDTIFEKCLEILQIFKYLTKKKLLIFVNSGAFLTKDEVASLQEYISLTNLTVLFLEPRELYDFPQYILDEDYFLITKNMV

Assay [1] has as its target T1, Streptococcus pyogenes type II-A Cas1 with a C-terminal (His)6 tag (Streptococcus pyogenes, UniProt Q99ZW1 1-289).
T1 sequence (looked up): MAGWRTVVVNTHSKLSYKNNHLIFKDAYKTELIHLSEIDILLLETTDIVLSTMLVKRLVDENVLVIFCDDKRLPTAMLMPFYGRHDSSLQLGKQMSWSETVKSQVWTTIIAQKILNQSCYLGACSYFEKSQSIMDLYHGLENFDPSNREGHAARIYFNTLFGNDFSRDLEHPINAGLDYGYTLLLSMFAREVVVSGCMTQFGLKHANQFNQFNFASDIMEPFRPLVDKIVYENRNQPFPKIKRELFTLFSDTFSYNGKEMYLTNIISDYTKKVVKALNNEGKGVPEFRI
The assay can be described thus: ITC. (In ITC the heat of successive injections is recorded.)

The target of assay [2] is B3. The assay can be described thus: ITC.
Assay [3] addresses Streptococcus pyogenes type II-A Cas9 with a C-terminal (His)6 tag (Streptococcus pyogenes, UniProt Q99ZW2 1-1368). The assay can be described thus: SPR.
For assay [4], the target named is B2. The assay can be described thus: ITC.

Chain of Streptococcus pyogenes type II-A Cas9 with a C-terminal (His)6 tag (Q99ZW2 whole entry): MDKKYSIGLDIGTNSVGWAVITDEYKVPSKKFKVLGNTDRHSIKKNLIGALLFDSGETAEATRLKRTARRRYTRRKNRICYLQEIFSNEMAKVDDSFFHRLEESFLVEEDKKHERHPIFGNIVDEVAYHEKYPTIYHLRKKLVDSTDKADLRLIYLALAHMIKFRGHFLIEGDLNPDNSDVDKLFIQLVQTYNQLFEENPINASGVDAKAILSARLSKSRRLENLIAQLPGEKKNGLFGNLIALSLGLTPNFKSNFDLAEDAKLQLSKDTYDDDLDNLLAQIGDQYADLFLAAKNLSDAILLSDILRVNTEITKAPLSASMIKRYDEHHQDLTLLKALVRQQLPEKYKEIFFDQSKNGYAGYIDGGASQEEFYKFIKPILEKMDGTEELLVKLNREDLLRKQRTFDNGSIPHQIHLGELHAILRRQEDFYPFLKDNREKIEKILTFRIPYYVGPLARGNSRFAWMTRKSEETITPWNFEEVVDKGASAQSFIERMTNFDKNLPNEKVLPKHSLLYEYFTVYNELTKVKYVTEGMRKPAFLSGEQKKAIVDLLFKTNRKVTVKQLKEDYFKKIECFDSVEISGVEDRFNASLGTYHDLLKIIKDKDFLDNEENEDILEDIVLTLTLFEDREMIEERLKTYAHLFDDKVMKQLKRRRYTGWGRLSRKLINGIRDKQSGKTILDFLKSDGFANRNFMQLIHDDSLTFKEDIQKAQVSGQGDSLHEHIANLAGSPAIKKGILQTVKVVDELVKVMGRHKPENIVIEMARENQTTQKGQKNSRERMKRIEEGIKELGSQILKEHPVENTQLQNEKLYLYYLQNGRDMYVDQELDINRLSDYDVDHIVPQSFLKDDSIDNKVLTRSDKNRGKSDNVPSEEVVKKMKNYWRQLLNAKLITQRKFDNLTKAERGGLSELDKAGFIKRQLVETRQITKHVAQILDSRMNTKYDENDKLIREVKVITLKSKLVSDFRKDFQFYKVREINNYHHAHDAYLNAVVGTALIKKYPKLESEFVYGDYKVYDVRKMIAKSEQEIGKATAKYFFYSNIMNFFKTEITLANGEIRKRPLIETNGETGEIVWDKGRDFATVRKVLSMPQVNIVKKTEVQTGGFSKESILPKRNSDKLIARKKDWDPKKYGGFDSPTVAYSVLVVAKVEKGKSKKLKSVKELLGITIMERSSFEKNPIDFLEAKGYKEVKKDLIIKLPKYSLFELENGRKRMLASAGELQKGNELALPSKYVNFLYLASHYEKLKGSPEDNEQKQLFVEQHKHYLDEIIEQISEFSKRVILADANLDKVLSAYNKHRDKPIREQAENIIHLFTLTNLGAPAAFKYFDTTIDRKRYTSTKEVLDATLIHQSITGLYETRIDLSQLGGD

B1: N-terminal (His)6-MBP-tagged full-length Streptococcus pyogenes type II-A Cas2 (natural protein, UniProt Q99ZW0 1-113, looked up)
chain: MSYRYMRMILMFDMPTDTAEERKAYRKFRKFLLSEGFIMHQFSIYSKLLLNNTANNAMIGRLREHNPNKGNITLLTVTEKQFARMIYLHGERNNCIANSDERLVFLGEAFDES
B1: in assay [1], the Kd (commonly the free concentration of one partner at which half of the binding sites on the other are occupied at equilibrium, for simple one-to-one binding) is 240 nM and the “stoichiometry N” value is 0.44 (His)6-MBP-Cas2 per Cas1.

Turning to B2, the “stoichiometry N” value in assay [2] is 2.1 Cas1–(His)6-MBP-Cas2 complex per Csn2 tetramer.

For B3, the Kd stood at 110 nM in assay [3] and 520 nM in assay [4].

Values taken from article PMC6182153 (Nucleic Acids Research, 2018).
